Consider 25 molecules from patent US20220169728A1 (AB THERAPEUTICS, published 2022).

First the molecules themselves.
B1: CD20/CD3 BsMab with common VL (SEQ ID NO: 3) N93P (bispecific antibody, V domains shown)
VH 1: QVQLQQPGAELVKPGASVKMSCKASGYTFTSYNMHWVKQTPGRGLEWIGAIYPGNGDTSYNQKFKGKATLTADKSSSTAYMQLSSLRSEDSAVYYCARSTYYGGDWYFNVWGAGTTVTVSA
VH 2: EVQLQESGAELARPGASVKMSCKASGYTFTSYTMHWVKQRPGEGLEWIGYINPSSGYTKYNQKFKDKATLTADKSSSTAYMELSSLTSEDSAVYYCARWQDYDVYFDYWGEGTTLTVSS
VL: QIVLSQSPAILSASPGEKVTMTCRASSSVSYIHWFQQKPGSSPKPWIYATSNLASGVPVRFSGSGSGTSYSLTISRVEAEDAATYYCQQWTSPPPTFGGGTKLEIKR
B2: CD20/CD3 BsMab with common VL (SEQ ID NO: 3) H33L (bispecific antibody, V domains shown)
VH 1: B1 VH 1
VH 2: B1 VH 2
VL: B1 VL with H33L, P93N
B3: CD20/CD3 BsMab with common VL (SEQ ID NO: 3) N93S (bispecific antibody, V domains shown)
VH 1: B1 VH 1
VH 2: B1 VH 2
VL: B1 VL with P93S
B4: CD20/CD3 BsMab with common VL (SEQ ID NO: 3) H33W (bispecific antibody, V domains shown)
VH 1: B1 VH 1
VH 2: B1 VH 2
VL: B1 VL with H33W, P93N
B5: CD20/CD3 BsMab with common VL (SEQ ID NO: 3) N93Q (bispecific antibody, V domains shown)
VH 1: B1 VH 1
VH 2: B1 VH 2
VL: B1 VL with P93Q
B6: CD20/CD3 BsMab with common VL (SEQ ID NO: 3) H33M (bispecific antibody, V domains shown)
VH 1: B1 VH 1
VH 2: B1 VH 2
VL: B1 VL with H33M, P93N
B7: CD20/CD3 BsMab with common VL (SEQ ID NO: 3) P95A (bispecific antibody, V domains shown)
VH 1: B1 VH 1
VH 2: B1 VH 2
VL: B1 VL with P93N, P95A
B8: CD20/CD3 BsMab with common VL (SEQ ID NO: 3) H33E (bispecific antibody, V domains shown)
VH 1: B1 VH 1
VH 2: B1 VH 2
VL: B1 VL with H33E, P93N
B9: CD20/CD3 BsMab with common VL (SEQ ID NO: 3) H33A (bispecific antibody, V domains shown)
VH 1: B1 VH 1
VH 2: B1 VH 2
VL: B1 VL with H33A, P93N
B10: CD20/CD3 BsMab with common VL (SEQ ID NO: 3) H33D (bispecific antibody, V domains shown)
VH 1: B1 VH 1
VH 2: B1 VH 2
VL: B1 VL with H33D, P93N
B11: CD20/CD3 BsMab with common VL (SEQ ID NO: 3) P95Q (bispecific antibody, V domains shown)
VH 1: B1 VH 1
VH 2: B1 VH 2
VL: B1 VL with P93N, P95Q
B12: CD20/CD3 BsMab with common VL (SEQ ID NO: 3) H33G (bispecific antibody, V domains shown)
VH 1: B1 VH 1
VH 2: B1 VH 2
VL: B1 VL with H33G, P93N
B13: CD20/CD3 BsMab with common VL (SEQ ID NO: 3) H33P (bispecific antibody, V domains shown)
VH 1: B1 VH 1
VH 2: B1 VH 2
VL: B1 VL with H33P, P93N
B14: CD20/CD3 BsMab with common VL (SEQ ID NO: 3) H33S (bispecific antibody, V domains shown)
VH 1: B1 VH 1
VH 2: B1 VH 2
VL: B1 VL with H33S, P93N
B15: CD20/CD3 BsMab with common VL (SEQ ID NO: 3) H33T (bispecific antibody, V domains shown)
VH 1: B1 VH 1
VH 2: B1 VH 2
VL: B1 VL with H33T, P93N
B16: CD20/CD3 BsMab with common VL (SEQ ID NO: 3) N93T (bispecific antibody, V domains shown)
VH 1: B1 VH 1
VH 2: B1 VH 2
VL: B1 VL with P93T
B17: CD20/CD3 BsMab with common VL (SEQ ID NO: 3) H33R (bispecific antibody, V domains shown)
VH 1: B1 VH 1
VH 2: B1 VH 2
VL: B1 VL with H33R, P93N
B18: CD20/CD3 BsMab with common VL (SEQ ID NO: 3) N93F (bispecific antibody, V domains shown)
VH 1: B1 VH 1
VH 2: B1 VH 2
VL: B1 VL with P93F
B19: CD20/CD3 BsMab with common VL (SEQ ID NO: 3) P95T (bispecific antibody, V domains shown)
VH 1: B1 VH 1
VH 2: B1 VH 2
VL: B1 VL with P93N, P95T
B20: CD20/CD3 BsMab with common VL (SEQ ID NO: 3) H33V (bispecific antibody, V domains shown)
VH 1: B1 VH 1
VH 2: B1 VH 2
VL: B1 VL with H33V, P93N
B21: CD20/CD3 BsMab with common VL (SEQ ID NO: 3) N93G (bispecific antibody, V domains shown)
VH 1: B1 VH 1
VH 2: B1 VH 2
VL: B1 VL with P93G
B22: CD20/CD3 BsMab with common VL (SEQ ID NO: 3) P95V (bispecific antibody, V domains shown)
VH 1: B1 VH 1
VH 2: B1 VH 2
VL: B1 VL with P93N, P95V
B23: CD20/CD3 BsMab with common VL (SEQ ID NO: 3) N93V (bispecific antibody, V domains shown)
VH 1: B1 VH 1
VH 2: B1 VH 2
VL: B1 VL with P93V
B24: CD20/CD3 BsMab with common VL (SEQ ID NO: 3) N93A (bispecific antibody, V domains shown)
VH 1: B1 VH 1
VH 2: B1 VH 2
VL: B1 VL with P93A
B25: CD20/CD3 BsMab with common VL (SEQ ID NO: 3) N93Y (bispecific antibody, V domains shown)
VH 1: B1 VH 1
VH 2: B1 VH 2
VL: B1 VL with P93Y

Where a chain is given by its changes, count along the chain named. Numbers in names are those of the source.

In this experiment the target is CD3 (Homo sapiens (Human), UniProt P07766 23-207; P04234 22-171; P09693 23-182). Put plainly: cell-based or functional assay.
Chain of CD3 (P07766 23-207 limits assumed, chain 1 of 3): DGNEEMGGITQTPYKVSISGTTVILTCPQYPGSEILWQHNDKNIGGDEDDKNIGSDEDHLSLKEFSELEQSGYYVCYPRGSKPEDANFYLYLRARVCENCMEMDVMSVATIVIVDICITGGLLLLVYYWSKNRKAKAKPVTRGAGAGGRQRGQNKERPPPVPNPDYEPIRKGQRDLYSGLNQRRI
Chain of CD3 (P04234 22-171 limits assumed, chain 2 of 3): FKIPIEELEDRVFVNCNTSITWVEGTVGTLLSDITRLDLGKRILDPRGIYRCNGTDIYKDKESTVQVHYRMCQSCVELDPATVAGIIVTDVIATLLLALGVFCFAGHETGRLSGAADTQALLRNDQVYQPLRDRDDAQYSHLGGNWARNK
Chain of CD3 (P09693 23-182 limits assumed, chain 3 of 3): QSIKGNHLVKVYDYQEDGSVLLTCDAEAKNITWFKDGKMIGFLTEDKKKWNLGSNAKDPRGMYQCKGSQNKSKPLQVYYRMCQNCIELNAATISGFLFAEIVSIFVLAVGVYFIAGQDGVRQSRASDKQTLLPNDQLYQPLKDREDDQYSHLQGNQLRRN
Regarding B1, the “Function % 0.025 ug/ml (T cell activation, CD69 on Jurkat cells with Raji cells, against the unmutated baseline)” value (“Function % 0.025 ug/ml” below) worked out at 9% and the “Function % 2 ug/ml (T cell activation, CD69 on Jurkat cells with Raji cells, against the unmutated baseline)” value (shortened to “Function % 2 ug/ml”) was 51%.
On the same counts, the results for B2 are 16% and 93%.
For B3, the “Function % 0.025 ug/ml” value amounted to 15% and the “Function % 2 ug/ml” value amounted to 90%.
Taken in the same sequence, the figures for B4 were 14% and 87%.
As for B5, the “Function % 0.025 ug/ml” value is 10% and the “Function % 2 ug/ml” value is 62%.
On the same counts, the results for B6 are 13% and 74%.
With B7, the “Function % 0.025 ug/ml” value was determined as 19% and the “Function % 2 ug/ml” value is 92%.
Turning to B8, the “Function % 0.025 ug/ml” value was determined as 89% and the “Function % 2 ug/ml” value was determined as 104%.
As for B9, the “Function % 0.025 ug/ml” value is 65% and the “Function % 2 ug/ml” value stood at 104%.
As to B10, the “Function % 0.025 ug/ml” value was determined as 109% and the “Function % 2 ug/ml” value is 96%.
Taken in the same sequence, the figures for B11 were 11% and 17%.
On to B12, for which the “Function % 0.025 ug/ml” value was 100% and the “Function % 2 ug/ml” value was 101%.
For the molecule B13, the “Function % 0.025 ug/ml” value was 34% and the “Function % 2 ug/ml” value worked out at 94%.
As for B14, the “Function % 0.025 ug/ml” value turned out to be 108% and the “Function % 2 ug/ml” value stood at 95%.
On the same counts, the results for B15 are 99% and 106%.
On the same counts, the results for B16 are 21% and 98%.
Taken in the same sequence, the figures for B17 were 9% and 54%.
For B18, the “Function % 0.025 ug/ml” value was 11% and the “Function % 2 ug/ml” value turned out to be 70%.
Taken in the same sequence, the figures for B19 were 13% and 52%.
On the same counts, the results for B20 are 83% and 104%.
On the same counts, the results for B21 are 15% and 21%.
For B22, the “Function % 0.025 ug/ml” value stood at 96% and the “Function % 2 ug/ml” value came to 97%.
On the same counts, the results for B23 are 33% and 95%.
On the same counts, the results for B24 are 12% and 80%.
On the same counts, the results for B25 are 12% and 22%.
